Assay results reported in article PMC7083938, “NELL2-Robo3 complex structure reveals mechanisms of receptor activation for axon guidance” (Nature Communications, 2020).

Legend:
[1] = target: the molecule itself; assay: SEC-SAXS; Superose 6 Increase 10/300 in HBS at APS BioCAT beamline 18; molecular weight from the scattering
[2] = target: the molecule itself; assay: SEC-MALS; Wyatt HELEOS II coupled to an AKTA FPLC, Superose Increase 6 10/300, HBS; Zimm model
[3] = target: T1, hRobo3 FN1-3, biotinylated (wild type) (human, UniProt Q96MS0 549-870, biotin on the Avi-tag (BirA)); assay: SPR; biotinylated hRobo3 FN1-3 on an SA chip, Biacore 3000; hNELL1 EGF1-3 or hNELL2 EGF1-3 as analyte; equilibrium isotherms; conditions: both partners purified
T1 construct: human Robo3, FN domains 1-3, P549-L870; also called WT hRobo3 FN; Robo3FN1-3 WT; source: High Five cells (baculovirus), purified (Ni-NTA, SEC), biotinylated with BirA
T1 sequence (looked up): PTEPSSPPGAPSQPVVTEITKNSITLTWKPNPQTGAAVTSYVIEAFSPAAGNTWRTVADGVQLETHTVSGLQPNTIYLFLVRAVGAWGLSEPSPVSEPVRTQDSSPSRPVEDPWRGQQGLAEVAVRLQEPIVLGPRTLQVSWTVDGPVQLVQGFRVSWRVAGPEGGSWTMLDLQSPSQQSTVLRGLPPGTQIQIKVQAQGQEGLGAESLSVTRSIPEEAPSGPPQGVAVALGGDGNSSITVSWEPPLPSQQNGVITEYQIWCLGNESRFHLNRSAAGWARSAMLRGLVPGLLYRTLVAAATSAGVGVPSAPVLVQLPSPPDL

[4] = target: T1, hRobo3 FN1-3, biotinylated (wild type); assay: SPR; as a6 but with additional 10 mM EDTA in all buffers; conditions: both partners purified
[5] = target: T2, mRobo3 FN1-3 (mouse, biotin on the Avi-tag (BirA) for SPR); assay: SPR; biotinylated mRobo3 FN1-3 on a Biacore SA chip; mNELL2 EGF1-6 WT and mutants as analytes over the same channel; 20 s 10 mM EDTA pH 8, 150 mM NaCl between runs; 25 °C, 10 mM HEPES pH 7.2, 150 mM NaCl, 0.05% Tween-20, 0.1% BSA; equilibrium, 1:1 Langmuir; conditions: both partners purified
T2 construct: also called Robo3FN1-3 (Polyhedrin, mouse); source: High Five cells (baculovirus), purified (Ni-NTA, SEC); biotinylated with BirA for SPR; not shown: His6, C-terminal, kept

[6] = target: T1, hRobo3 FN1-3, biotinylated (wild type); assay: SPR; biotinylated hRobo3 FN1-3 on an NLC/neutravidin chip, ProteOn XPR36; hNELL2 EGF1-6 as analyte; 25 °C, 10 mM HEPES pH 7.2, 150 mM NaCl, 0.05% Tween-20, 0.1% BSA; equilibrium responses, 1:1 Langmuir; conditions: both partners purified
[7] = target: the molecule itself; assay: AUC; sedimentation velocity, concentration series (mRobo3 0.6-20 µM at 200,000 g; mRobo1 0.9-9.8 µM at 140,000 g), 20 °C, c(s) analysis
[8] = target: T3, hRobo3 FN1-3 displayed on S2 cells (human, UniProt Q96MS0 549-870); assay: flow cytometry on cells; biotinylated ligand at various concentrations, 30 min at 4 °C in PBS + 0.1% BSA, on Drosophila S2 cells displaying the partner (C-terminal FLAG, rat Neurexin-1 transmembrane helix); Cy5-streptavidin; gated on anti-FLAG positive cells; MFI fit to a single-site model; apparent KD; conditions: one partner purified
T3 construct: human Robo3, FN domains 1-3, P549-L870; also called Robo3FN1-3 WT (Actin 5C, C-terminal FLAG); source: Drosophila S2 cells, transiently transfected, on the cell surface; not shown: FLAG, C-terminal, kept; transmembrane helix of rat Neurexin-1, C-terminal, kept
T3 sequence (looked up): T1 sequence (looked up)

B1: hNELL2 (full length) (ligand, human, UniProt Q99435 22-816, looked up)
chain: LGVDPSLQIDVLTELELGESTTGVRQVPGLHNGTKAFLFQDTPRSIKASTATAEQFFQKLRNKHEFTILVTLKQTHLNSGVILSIHHLDHRYLELESSGHRNEVRLHYRSGSHRPHTEVFPYILADDKWHKLSLAISASHLILHIDCNKIYERVVEKPSTDLPLGTTFWLGQRNNAHGYFKGIMQDVQLLVMPQGFIAQCPDLNRTCPTCNDFHGLVQKIMELQDILAKTSAKLSRAEQRMNRLDQCYCERTCTMKGTTYREFESWIDGCKNCTCLNGTIQCETLICPNPDCPLKSALAYVDGKCCKECKSICQFQGRTYFEGERNTVYSSSGVCVLYECKDQTMKLVESSGCPALDCPESHQITLSHSCCKVCKGYDFCSERHNCMENSICRNLNDRAVCSCRDGFRALREDNAYCEDIDECAEGRHYCRENTMCVNTPGSFMCICKTGYIRIDDYSCTEHDECITNQHNCDENALCFNTVGGHNCVCKPGYTGNGTTCKAFCKDGCRNGGACIAANVCACPQGFTGPSCETDIDECSDGFVQCDSRANCINLPGWYHCECRDGYHDNGMFSPSGESCEDIDECGTGRHSCANDTICFNLDGGYDCRCPHGKNCTGDCIHDGKVKHNGQIWVLENDRCSVCSCQNGFVMCRRMVCDCENPTVDLFCCPECDPRLSSQCLHQNGETLYNSGDTWVQNCQQCRCLQGEVDCWPLPCPDVECEFSILPENECCPRCVTDPCQADTIRNDITKTCLDEMNVVRFTGSSWIKHGTECTLCQCKNGHICCSVDPQCLQEL
notes: human NELL2, L22-L816; trimer by SAXS; also called NELL2FL (Polyhedrin, human); source: High Five cells (baculovirus), purified (Ni-NTA, SEC)
- stoichiometry N [1]: 3

B2: full-length human NELL2 (ligand, UniProt Q99435 22-816, looked up)
chain: B1 chain
notes: NELL2, human; called full-length; the methods say that mature domains were cloned into pAcGP67A; Trimer by MALS and SAXS; also called hNELL2; full-length hNELL2; source: High Five cells (baculovirus), secreted, purified (Ni-NTA, SEC)
- stoichiometry N [2]: 3

B3: hNELL1 EGF1-3 (domain or fragment, human, UniProt Q92832 390-517, looked up)
chain: RGHNFCAEGPKCGENSECKNWNTKATCECKSGYISVQGDSAYCEDIDECAAKMHYCHANTVCVNLPGLYRCDCVPGYIRVDDFSCTEHDECGSGQHNCDENAICTNTVQGHSCTCKPGYVGNGTICRA
notes: human NELL1, EGF domains 1-3, R390-A517; also called NELL1EGF1-3 (Polyhedrin, human); source: High Five cells (baculovirus), purified (Ni-NTA, SEC)
- Kd [3]: 460 nM
- Kd [4]: 2710 nM

B4: mNELL2 EGF1-6 L498A/F500A (domain or fragment)
chain: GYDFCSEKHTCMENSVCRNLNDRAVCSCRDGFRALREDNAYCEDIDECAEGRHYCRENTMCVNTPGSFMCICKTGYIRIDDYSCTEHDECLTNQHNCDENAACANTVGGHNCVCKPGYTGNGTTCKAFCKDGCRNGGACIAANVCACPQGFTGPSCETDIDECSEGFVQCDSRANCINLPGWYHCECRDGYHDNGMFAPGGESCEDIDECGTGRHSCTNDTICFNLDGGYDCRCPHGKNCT
- Kd [5]: ≥ 100000 nM

B5: mouse NELL1 (ligand, UniProt Q2VWQ2 22-810, looked up)
chain: FGMDPDLQMDIITELDLVNTTLGVTQVAGLHNASKAFLFQDVQREIHSAPHVSEKLIQLFRNKSEFTFLATVQQKPSTSGVILSIRELEHSYFELESSGPREEIRYHYIHGGKPRTEALPYRMADGQWHKVALSVSASHLLLHVDCNRIYERVIDPPETNLPPGSNLWLGQRNQKHGFFKGIIQDGKIIFMPNGFITQCPNLNRTCPTCSDFLSLVQGIMDLQELLAKMTAKLNYAETRLGQLENCHCEKTCQVSGLLYRDQDSWVDGDNCRNCTCKSGAVECRRMSCPPLNCSPDSLPVHISGQCCKVCRPKCIYGGKVLAEGQRILTKTCRECRGGVLVKITEACPPLNCSEKDHILPENQCCRVCRGHNFCAEAPKCGENSECKNWNTKATCECKNGYISVQGNSAYCEDIDECAAKMHYCHANTVCVNLPGLYRCDCIPGYIRVDDFSCTEHDDCGSGQHNCDKNAICTNTVQGHSCTCQPGYVGNGTVCKAFCEEGCRYGGTCVAPNKCVCPSGFTGSHCEKDIDECAEGFVECHNHSRCVNLPGWYHCECRSGFHDDGTYSLSGESCIDIDECALRTHTCWNDSACINLAGGFDCLCPSGPSCSGDCPHEGGLKHNGQVWILREDRCSVCSCKDGKIFCRRTACDCQNPNVDLFCCPECDTRVTSQCLDQSGQKLYRSGDNWTHSCQQCRCLEGEADCWPLACPSLSCEYTAIFEGECCPRCVSDPCLADNIAYDIRKTCLDSSGISRLSGAVWTMAGSPCTTCQCKNGRVCCSVDLVCLENN
notes: NELL1, mouse; the methods say that mature domains were cloned into pAcGP67A; Trimer by MALS; also called mNELL1; source: High Five cells (baculovirus), secreted, purified (Ni-NTA, SEC)
- stoichiometry N [2]: 3

B6: hNELL2 EGF1-6 (His-tagged) (domain or fragment)
chain: not shown
notes: human NELL2, EGF domains 1-6, G397-T637; also called NELL2EGF1-6 (Polyhedrin, human); source: High Five cells (baculovirus), purified (Ni-NTA, SEC)
- Kd [6]: 579 nM

B7: mNELL2 EGF1-6 D477A/Y478A (domain or fragment)
chain: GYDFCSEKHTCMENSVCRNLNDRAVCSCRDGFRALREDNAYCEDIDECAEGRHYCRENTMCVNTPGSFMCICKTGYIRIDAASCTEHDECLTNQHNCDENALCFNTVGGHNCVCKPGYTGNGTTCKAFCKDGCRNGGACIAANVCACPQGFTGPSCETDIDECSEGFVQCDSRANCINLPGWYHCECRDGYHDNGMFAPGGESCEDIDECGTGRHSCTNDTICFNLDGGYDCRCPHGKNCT
- Kd [5]: ≥ 100000 nM

B8: hNELL2 EGF1-3 (domain or fragment, human, UniProt Q99435 397-523, looked up)
chain: GYDFCSERHNCMENSICRNLNDRAVCSCRDGFRALREDNAYCEDIDECAEGRHYCRENTMCVNTPGSFMCICKTGYIRIDDYSCTEHDECITNQHNCDENALCFNTVGGHNCVCKPGYTGNGTTCKA
notes: human NELL2, EGF domains 1-3, G397-A523; also called NELL2EGF1-3 (Polyhedrin, human); source: High Five cells (baculovirus), purified (Ni-NTA, SEC)
- Kd [3]: 250 nM
- Kd [4]: 790 nM

B9: mRobo1 ectodomain (domain or fragment, mouse, UniProt O89026 30-840, looked up)
chain: RIVEHPSDLIVSKGEPATLNCKAEGRPTPTIEWYKGGERVETDKDDPRSHRMLLPSGSLFFLRIVHGRKSRPDEGVYICVARNYLGEAVSHNASLEVAILRDDFRQNPSDVMVAVGEPAVMECQPPRGHPEPTISWKKDGSPLDDKDERITIRGGKLMITYTRKSDAGKYVCVGTNMVGERESEVAELTVLERPSFVKRPSNLAVTVDDSAEFKCEARGDPVPTVRWRKDDGELPKSRYEIRDDHTLKIRKVTAGDMGSYTCVAENMVGKAEASATLTVQEPPHFVVKPRDQVVALGRTVTFQCEATGNPQPAIFWRREGSQNLLFSYQPPQSSSRFSVSQTGDLTITNVQRSDVGYYICQTLNVAGSIITKAYLEVTDVIADRPPPVIRQGPVNQTVAVDGTLILSCVATGSPAPTILWRKDGVLVSTQDSRIKQLESGVLQIRYAKLGDTGRYTCTASTPSGEATWSAYIEVQEFGVPVQPPRPTDPNLIPSAPSKPEVTDVSKNTVTLSWQPNLNSGATPTSYIIEAFSHASGSSWQTAAENVKTETFAIKGLKPNAIYLFLVRAANAYGISDPSQISDPVKTQDVPPTSQGVDHKQVQRELGNVVLHLHNPTILSSSSVEVHWTVDQQSQYIQGYKILYRPSGASHGESEWLVFEVRTPTKNSVVIPDLRKGVNYEIKARPFFNEFQGADSEIKFAKTLEEAPSAPPRSVTVSKNDGNGTAILVTWQPPPEDTQNGMVQEYKVWCLGNETKYHINKTVDGSTFSVVIPSLVPGIRYSVEVAASTGAGPGVKSEPQFIQLDSHGNPVS
notes: mouse Robo1, extracellular domain, R30-S840; C-terminal Avi and His; also called mRobo1 ECD; Robo1ECD; source: High Five cells (baculovirus), purified (Ni-NTA, SEC)
- stoichiometry N [7]: 2

B10: hNELL2 EGF1-6, biotinylated (wild type) (domain or fragment)
chain: not shown
modifications: biotin on the Avi-tag (BirA)
notes: human NELL2, EGF domains 1-6, G397-T637; also called WT hNELL2 EGF; NELL2EGF1-6 WT; source: High Five cells (baculovirus), purified (Ni-NTA, SEC), biotinylated with BirA
- Kd [8]: 770 nM

B11: hNELL2 EGF1-6 V509A, biotinylated (domain or fragment)
chain: not shown
modifications: biotin on the Avi-tag (BirA)
notes: human NELL2, EGF domains 1-6, G397-T637; source: High Five cells (baculovirus), purified, biotinylated with BirA (general methods)
- Kd [8]: 1500 nM

B12: hNELL2 EGF1-6 L498A/F500A, biotinylated (domain or fragment)
chain: not shown
modifications: biotin on the Avi-tag (BirA)
notes: as for B11
- Kd [8]: ≥ 100000 nM

B13: hNELL2 EGF1-6 D477A/Y478A, biotinylated (domain or fragment)
chain: not shown
modifications: biotin on the Avi-tag (BirA)
notes: as for B11
- Kd [8]: ≥ 100000 nM

B14: hNELL2 EGF1-6 R448A/Y450A, biotinylated (domain or fragment)
chain: not shown
modifications: biotin on the Avi-tag (BirA)
notes: as for B11
- Kd [8]: 9000 nM

B15: hNELL2 EGF1-6 R452A, biotinylated (domain or fragment)
chain: not shown
modifications: biotin on the Avi-tag (BirA)
notes: as for B11
- Kd [8]: 1100 nM

B16: hNELL2 EGF1-6 D476A, biotinylated (domain or fragment)
chain: not shown
modifications: biotin on the Avi-tag (BirA)
notes: as for B11
- Kd [8]: ~50000 nM
